One molecule from patent publication US20190030156A1 (TECHNOVAX, published 2019) can be followed below.

For this assay, the target named is RSV fusion glycoprotein (F) of RSV A2 strain virus (human respiratory syncytial virus A2 …, UniProt P03420 26-574). Put plainly: cell-based or functional assay.
RSV fusion glycoprotein (F) of RSV A2 strain virus, sequence (P03420 26-574): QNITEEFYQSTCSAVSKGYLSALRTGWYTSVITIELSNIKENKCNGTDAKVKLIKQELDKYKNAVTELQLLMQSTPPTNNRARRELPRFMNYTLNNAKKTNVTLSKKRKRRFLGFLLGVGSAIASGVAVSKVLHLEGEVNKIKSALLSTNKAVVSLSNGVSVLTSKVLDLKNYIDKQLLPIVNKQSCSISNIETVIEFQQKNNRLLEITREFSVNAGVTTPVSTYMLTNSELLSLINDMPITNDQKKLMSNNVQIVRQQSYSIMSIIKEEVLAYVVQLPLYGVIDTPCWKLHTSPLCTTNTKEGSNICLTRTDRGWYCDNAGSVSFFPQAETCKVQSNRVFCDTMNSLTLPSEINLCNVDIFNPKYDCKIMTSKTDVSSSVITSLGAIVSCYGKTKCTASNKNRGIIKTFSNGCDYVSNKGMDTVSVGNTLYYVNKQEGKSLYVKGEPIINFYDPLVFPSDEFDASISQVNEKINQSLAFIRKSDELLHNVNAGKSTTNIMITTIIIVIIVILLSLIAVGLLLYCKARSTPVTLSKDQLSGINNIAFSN

B1: Palivizumab (Synagis, MedImmune) (antibody, V domains shown)
VH: QVTLRESGPALVKPTQTLTLTCTFSGFSLSTSGMSVGWIRQPPGKALEWLADIWWDDKKDYNPSLKSRLTISKDTSKNQVVLKVTNMDPADTATYYCARSMITNWYFDVWGAGTTVTVSS
VL: DIQMTQSPSTLSASVGDRVTITCKCQLSVGYMHWYQQKPGKAPKLLIYDTSKLASGVPSRFSGSGSGTEFTLTISSLQPDDFATYYCFQGSGYPFTFGGGTKLEIK
In the case of B1, the “IC50 neutralizing activity (plaque reduction neutralization test, RSV A2 on HEp-2 cells)” value turned out to be 2 µg/mL.
